Results as given in PMC8266576, “TnpAREP and REP sequences dissemination in bacterial genomes: REP recognition determinants”.
Substitutions are numbered along the chain they refer to.

T1: TnpAREP Ec (TnpAEc-His6) (Escherichia coli, UniProt Q47152 1-165)
T1 sequence: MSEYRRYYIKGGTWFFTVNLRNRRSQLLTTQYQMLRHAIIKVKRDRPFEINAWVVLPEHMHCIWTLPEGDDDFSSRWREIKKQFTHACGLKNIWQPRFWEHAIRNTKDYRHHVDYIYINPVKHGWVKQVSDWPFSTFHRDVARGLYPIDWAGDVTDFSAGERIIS

B1: B268i (61) wt y REPEc (structured_DNA)
DNA: GTAGGACGGATAAGGCGTTTACGCCGCATCCGGCAGTTGTACGCAGGTGCCTGATGCGACG
B2: B2689 mut loop (complement of loop) (structured_DNA)
DNA: B1 DNA with T19A, T20A
B3: B268i (61) GTGG (structured_DNA)
DNA: B1 DNA with A3G
B4: B268i (61) GTAC (structured_DNA)
DNA: B1 DNA with G4C

Biological target: T1, TnpAREP Ec (TnpAEc-His6)
Assay: EMSA; 2 and 4 uM protein, no divalent metal; EMSA: 12.5 mM Tris pH 7.5, 120 mM NaCl, 1 mM DTT, 20 ug/ml BSA, 0.5 ug poly-dIdC, 7% glycerol, no divalent metal; 0.02 uM labelled + 0.5 uM unlabelled oligonucleotide, 45 min 37 C (standard reaction); 8% native gel (TAE, 7% glycerol) at 4 C
Settings: protein: recombinant, tags: His6 (C-terminal by name), chain copies: 2, label: 5'-32P

| Binder | binding result (hairpin with bulge) | binding result |
| --- | --- | --- |
| B1 | binds |  |
| B2 | binds |  |
| GTAGGACGGATAAGCATCCGGCAGTTGTACGCAGGTGCCTGATGCGACG (structured_DNA) [B2688 del upper stem and loop] |  | no binding |
| B3 | no binding |  |
| B4 | no binding |  |
